The subject of series [1] is Nc1ccn([C@@H]2O[C@H](COP(=O)(O)OP(=O)(O)NC(=O)CC[C@H](N)C(=O)O)[C@@H](O)[C@H]2O)c(=O)n1. The series can be described thus: purified protein. To be noted: pH 8.0, 25 °C.
The subject of series [2] is N[C@@H](CCC(=O)NP(=O)(O)O)C(=O)O. The experiment in a line: purified protein. To be noted: fixed 5.0 mM MgCTP, pH 8.0, 25 °C.

For “Cj1417 (Campylobacter jejuni subsp. jejuni NCTC 11168 = ATCC 700819)”, in series [1], the Michaelis constant (Km) (commonly the substrate concentration at which the rate is half of its maximum) came out at 28 ± 3 µM and the kcat (commonly the maximal rate divided by the concentration of active sites) came out at 0.567 ± 0.02 s⁻¹.
For “Cj1416 (Campylobacter jejuni subsp. jejuni NCTC 11168 = ATCC 700819)”, in series [2], the Km was found to be 120 ± 30 µM and the kcat came to 0.95 ± 0.1 s⁻¹.

Source of the values: article PMC5938751.
